Assays:
mouse NgR1 = biological target: T1, mouse NgR1 (Mus musculus, UniProt Q99PI8); experiment: Antibody binding to mouse Nogo receptor-1
T1 sequence (Q99PI8 27-447): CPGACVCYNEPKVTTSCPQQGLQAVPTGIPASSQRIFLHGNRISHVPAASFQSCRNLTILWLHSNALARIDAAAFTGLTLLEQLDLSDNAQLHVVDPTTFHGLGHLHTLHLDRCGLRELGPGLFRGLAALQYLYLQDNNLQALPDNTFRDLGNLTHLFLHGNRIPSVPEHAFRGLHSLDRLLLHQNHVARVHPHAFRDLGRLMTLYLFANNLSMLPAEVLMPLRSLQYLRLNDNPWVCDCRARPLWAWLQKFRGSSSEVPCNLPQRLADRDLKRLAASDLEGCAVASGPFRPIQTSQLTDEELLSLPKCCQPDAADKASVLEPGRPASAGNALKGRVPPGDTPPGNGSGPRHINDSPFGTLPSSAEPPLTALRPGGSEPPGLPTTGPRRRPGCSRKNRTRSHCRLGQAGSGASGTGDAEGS

DRG neurons = experiment: Neurite outgrowth assay on CNS myelin (Example 5); format: cell-based; settings: P3-4 rat DRG; 15 μg/ml mAb 7E11
Method: To test the ability of the monoclonal and Fab-phage antibodies produced above to lessen the inhibitory effect of CNS myelin on neurons, Lab-Tek® culture slides (4 wells) were coated with 0.1 mg/ml poly-D-lysine (Sigma®). CNS myelin or PBS was spotted as 3 μl drops. Fluorescent microspheres (Polysciences) were added to the myelin/PBS to allow later identification of the drops (Grandpre et al, Nature 403, 2000). Lab-Tek® slides were then rinsed and coated with 10 μg/ml laminin (Gibco™). Dorsal root ganglions (DRG's) from P3-4 Sprague Dawley rat pups were dissociated with 1 mg/ml collagenase type 1 (Worthington), triturated with fire-polished Pasteur pipettes pre-plated to enrich in neuronal cells and finally plated at 23,000 cells/well on the pre-coated Lab-Tek® culture slides. The culture medium was F12 containing 5% heat inactivated donor horse serum, 5% heat inactivated fetal bovine serum and 50 ng/ml MNGF and incubated at 37 °C and 5% CO2 for 6 hours. Fifteen μg/ml of mAb 7E11 was added immediately after plating.
Slides were fixed for 20 minutes with 4% paraformaldehyde containing 20% sucrose and stained for the neuronal marker anti beta-III-tubulin (Covance TUJ1) diluted 1:500. […] 5× digital images were acquired with OpenLab™ software and analysed by using the MetaMorph® software for quantification of neurite outgrowth.

[1] = biological target: T2, sNogoR344-Fc (residues 26-344 of rat Nogo receptor-1) (Rattus norvegicus, UniProt Q99M75, A303T/C287S/C43R/E284G/T53A); experiment: Inhibition of 125I-Nogo66 binding to sNogoR344-Fc on SPA beads; settings: curve-fit
T2 construct: amino acid residues 26-344 of rat Nogo receptor-1; made in house
T2 sequence (Q99M75 26-344 C43R/T53A/E284G/C287S/A303T): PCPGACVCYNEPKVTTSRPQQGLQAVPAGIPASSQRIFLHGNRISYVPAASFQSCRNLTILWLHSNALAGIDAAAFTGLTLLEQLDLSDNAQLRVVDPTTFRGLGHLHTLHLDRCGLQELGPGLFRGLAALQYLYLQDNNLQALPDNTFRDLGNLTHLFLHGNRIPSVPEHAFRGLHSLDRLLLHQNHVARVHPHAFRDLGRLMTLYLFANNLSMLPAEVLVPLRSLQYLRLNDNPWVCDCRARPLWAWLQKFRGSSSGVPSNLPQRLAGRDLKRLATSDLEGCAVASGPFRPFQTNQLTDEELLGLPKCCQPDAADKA
Method: (§1) 0.5 μg of a soluble Nogo receptor-1 fusion protein comprising amino acid residues 26-344 of rat Nogo receptor-1 and the hinge and Fc region of the rat IgG1 molecule (sNogoR344-Fc) produced as described below was immobilized on 250 μg of protein-A- or wheatgerm agglutinin-conjugated SPA beads (Amersham Pharmacia Biotech) for 2 hours at 25° C. SPA beads coupled with Fc-sNogoR-1, anti-Nogo receptor-1 mAb and 1 μl ^125I-Nogo66 (Amersham, 2000 Ci/mmol, 1 nM) in 50 μl of the HEPES-buffered incubation medium (10 mM HEPES, pH 7.4, 0.1% bovine serum albumin, 0.1% ovalbumin, 2 mM MgCl2, 2 mM CaCl2 and protease inhibitors) was added to each sample well. After 16 hours, radioactivity was measured in quadruplicate samples using a TopCount® (Packard). IC50 values were calculated from a curve-fit analysis (FIG. 3) (PRISM, GraphPad Software, NJ). In some experiments, we also used AP-ligand conjugates (e.g. AP-Nogo66) and detected binding by monitoring alkaline phosphatase activity. We also assayed the ability of the mAbs to block binding of the ligands MAG-Fc and AP-OM-gp to Nogo receptor-1.

[2] = biological target: polypeptide p-617 (SEQ ID NO: 1) (Rattus norvegicus, UniProt Q99M75); experiment: Specificity ELISA on polypeptide p-617; format: binding
From the text: To determine the specificity of the monoclonal and Fab-phage antibodies produced in Examples 1 and 2, we performed an ELISA using a panel of Nogo receptor-1 polypeptides. The panel consisted of sNogoR310-Fc (a fusion protein comprising amino acids 26-310 of rat Nogo receptor-1 and a rat Fc fragment), sNogoR344-Fc (see supra), polypeptide p-617 (SEQ ID NO: 1), polypeptide p-618 (a 19-amino acid polypeptide from the LRR7 region of rat Nogo receptor-1; FIG. 2; SEQ ID NO: 11) and polypeptides p-4 and p-5 (polypeptides from the LRR5 and LRRCT regions of Nogo receptor-1, respectively). Ovalbumin and BSA were used as controls.

MAG + sNogoR344-Fc = biological target: T3, MAG + sNogoR344-Fc (Rattus norvegicus, UniProt Q99M75, A303T/C287S/C43R/E284G/T53A); experiment: mAb/Fab inhibition of MAG binding to sNogoR344-Fc (ELISA)
T3 construct: amino acid residues 26-344 of rat Nogo receptor-1; made in house
T3 sequence (Q99M75 26-344 C43R/T53A/E284G/C287S/A303T): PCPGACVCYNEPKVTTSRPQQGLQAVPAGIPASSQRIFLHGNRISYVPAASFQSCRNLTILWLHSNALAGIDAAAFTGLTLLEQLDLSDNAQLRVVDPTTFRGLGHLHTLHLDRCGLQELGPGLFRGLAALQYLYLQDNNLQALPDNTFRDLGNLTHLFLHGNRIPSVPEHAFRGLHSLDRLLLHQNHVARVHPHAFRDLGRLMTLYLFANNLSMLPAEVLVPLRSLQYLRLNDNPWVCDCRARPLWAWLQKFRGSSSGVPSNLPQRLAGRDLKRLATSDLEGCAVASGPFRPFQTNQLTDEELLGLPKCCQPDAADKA
Method: as §1
(§2) The calculated IC50 for Nogo66 for 7E11 and 1H2 were 400 nM and 60 nM, respectively. The data from ELISAs monitoring mAb-mediated inhibition of binding of the three ligands to Nogo receptor-1 are summarized in Table 6.
(§3) We also performed ELISA binding assays using the Fab-phage 14D5.

OM-gp + sNogoR344-Fc = biological target: T4, OM-gp + sNogoR344-Fc (Rattus norvegicus, UniProt Q99M75, A303T/C287S/C43R/E284G/T53A); experiment: mAb/Fab inhibition of OM-gp binding to sNogoR344-Fc (ELISA)
T4 construct: amino acid residues 26-344 of rat Nogo receptor-1; made in house
T4 sequence (Q99M75 26-344 C43R/T53A/E284G/C287S/A303T): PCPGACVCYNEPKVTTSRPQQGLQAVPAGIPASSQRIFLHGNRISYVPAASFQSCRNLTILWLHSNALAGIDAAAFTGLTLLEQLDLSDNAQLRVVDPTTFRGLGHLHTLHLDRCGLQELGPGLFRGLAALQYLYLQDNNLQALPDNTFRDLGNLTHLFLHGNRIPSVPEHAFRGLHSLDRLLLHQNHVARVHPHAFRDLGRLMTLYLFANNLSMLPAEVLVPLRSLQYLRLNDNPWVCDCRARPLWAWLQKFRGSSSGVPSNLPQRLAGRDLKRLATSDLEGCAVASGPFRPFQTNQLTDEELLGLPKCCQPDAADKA
Method: as §1, §2, §3

Nogo66 + sNogoR344-Fc = biological target: T5, Nogo66 + sNogoR344-Fc (Rattus norvegicus, UniProt Q99M75, A303T/C287S/C43R/E284G/T53A); experiment: mAb/Fab inhibition of Nogo66 binding to sNogoR344-Fc (ELISA)
T5 construct: amino acid residues 26-344 of rat Nogo receptor-1; made in house
T5 sequence (Q99M75 26-344 C43R/T53A/E284G/C287S/A303T): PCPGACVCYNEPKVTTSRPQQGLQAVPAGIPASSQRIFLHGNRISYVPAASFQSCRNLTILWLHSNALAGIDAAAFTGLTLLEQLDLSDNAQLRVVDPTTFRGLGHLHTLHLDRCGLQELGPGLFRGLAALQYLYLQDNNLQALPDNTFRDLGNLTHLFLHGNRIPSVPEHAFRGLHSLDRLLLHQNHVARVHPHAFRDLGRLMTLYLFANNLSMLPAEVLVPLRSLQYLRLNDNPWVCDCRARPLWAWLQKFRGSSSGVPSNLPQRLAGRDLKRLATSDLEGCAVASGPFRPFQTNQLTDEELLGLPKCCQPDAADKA
Method: as §1, §2, §3

B1: 7E11: murine monoclonal anti-Nogo receptor-1 antibody, IgG1 kappa, ATCC PTA-4587; immunogen rat Nogo receptor-1 residues 110-125 (antibody, V domains shown)
VH: VQLQESGAELVMPGASVKMSCKASGYTFTDYWMHWVKQRPGQGLEWIGAIDPSDSYSSYNQNFKGKATLTVDGSSSTAYMQLSSLTSEDSAVYYCARRITEAGAWFAYWGQGTTVT
VL: DVVMTQTPLSLPVSLGDQASISCRSSQSLVHSNGNTYLHWYLQKPGQSPKLLIYKVSNRFSGVPDRFSGSGSGTDFTLKISRVDAEDLGVYFCSQSTHVPFTFGGGTKLEIKRADAAPTVSISHH
binding to mouse NgR1 (mouse NgR1): poorly
protection from myelin-mediated inhibition of neurite outgrowth (DRG neurons): protected
IC50 [1]: 400 nM
binding to polypeptide p-617 [2]: specifically bound
inhibition of binding of MAG to sNogoR344-Fc (MAG + sNogoR344-Fc): inhibited binding
percent displacement, MAG + sNogoR344-Fc (MAG + sNogoR344-Fc; 30 nM antibody): 30 nM (60%)
EC50 (MAG + sNogoR344-Fc; curve-fit analysis): 500 nM
inhibition of binding of OM-gp to sNogoR344-Fc (OM-gp + sNogoR344-Fc): inhibited binding
EC50 (OM-gp + sNogoR344-Fc; curve-fit analysis): 150 nM
inhibition of binding of Nogo66 to sNogoR344-Fc (Nogo66 + sNogoR344-Fc): inhibited binding
EC50 (Nogo66 + sNogoR344-Fc; curve-fit analysis): 1700 nM
